Source: patent US20260124313A1, “SITE-SPECIFIC COVALENT LIGATION OF HUMAN SERUM ALBUMIN” (The Regents of the University of California, priority 2022, published 2026)
Non-standard residues stand in square brackets, D forms with d. No end group written: not given here. *: point of attachment. Myristoyl = CCCCCCCCCCCCCC(=O)*; Aad = N[C@@H](CCCC(=O)O)C(=O)O; Acryloyl = C=CC(=O)*

Molecular target: T1, albumin in human serum (Homo sapiens, UniProt P02768)
T1 construct: tissue Sigma Aldrich; host or cells: human serum
Test: Conjugation to serum-borne HSA in human serum, SDS-PAGE fluorescence and Coomassie Blue
Assay type: biochemical
Description: Protein SDS-PAGE gels were exposed at green channel (Exc.=490 nm, Emm.=525 nm), then stained by Coomassie Blue.
To 100 μl human serum was added 10 μl FC-LYL1 or 10 μl FC-Mal stock solution (1 mM). The albumin content in serum is presumed to be 600 μM for healthy donors. The final concentrations of albumin and FC-labeled reactive probes in the reaction mixture are calculated to be 545 µM and 91 μM, respectively. The serum/ligands mixture was incubated at 37° C. in dark. The conjugation reactions were setup every 3 days, and […] conjugation reactions were setup in total for 3 weeks. The serum mixtures were subjected to electrophoresis and Coommassie Blue Staining without further treatment. Since albumin to probe ratio was about 6:1 and there are 5 known fatty acid binding sites on each albumin molecule, fatty acid binding site:probe ratio was over […]. We therefore believe significant portion of the reactive probes would be sequestered in the “non-productive” (no covalent ligation) fatty acid binding sites most of the time.

FC-LYL1: FITC-tagged LYL1 (Myristoyl-[dE]DK(Acryloyl)[dS][Aad]; not fully specified (C-terminus); also: FITC on amino group of C-terminal lysine)
reaction speed in human serum (545 μM albumin, 91 μM probe, 37° C.): slow reaction over days
selectivity of protein labeling in serum (human serum, SDS-PAGE green channel): can selectively label albumin content
